# In patent publication US7268108:
# [ ]: non-standard residue; d: D form. The star is where a group is joined. dPhe(4-NO2) = N[C@H](Cc1ccc([N+](=O)[O-])cc1)C(=O)O; Benzenesulfonyl = O=S(=O)(c1ccccc1)*; d(hPhe) = N[C@H](CCc1ccccc1)C(=O)O; d2Thi = N[C@H](Cc1cccs1)C(=O)O; NMeNle = CCCC[C@H](NC)C(=O)O; PyrProp = pyridinepropionyl; Tos = Cc1ccc(S(=O)(=O)*)cc1; Nle = CCCC[C@H](N)C(=O)O
# Molecular target: melanocortin-1 receptor (MC-1r) on murine melanocytes (line S91 Cloudman) (murine) (UniProt Q01727)
# Test: cell-based or functional assay
# Chain of melanocortin-1 receptor (MC-1r) on murine melanocytes (line S91 Cloudman) (murine) (Q01727 whole entry): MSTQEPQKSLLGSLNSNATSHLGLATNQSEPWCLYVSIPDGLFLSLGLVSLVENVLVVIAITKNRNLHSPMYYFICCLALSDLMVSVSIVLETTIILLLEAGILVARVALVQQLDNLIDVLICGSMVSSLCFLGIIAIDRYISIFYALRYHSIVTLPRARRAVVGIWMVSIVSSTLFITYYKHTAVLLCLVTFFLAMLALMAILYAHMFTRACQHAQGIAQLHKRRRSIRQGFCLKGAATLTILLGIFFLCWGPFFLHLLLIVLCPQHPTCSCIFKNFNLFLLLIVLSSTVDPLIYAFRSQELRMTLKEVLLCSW
row,Binder,cAMP production (as % of α-MSH)
1,"PyrProp-[Nle]AH[dPhe(4-NO2)]RW-NH2 [Compound No. 11 in the Table, PyrProp-Nle-Ala-His-DpNO2Phe-Arg-Trp-NH2]",150 % of α-MSH
2,"Ac-[Nle]AH[dF]RW-NH2 [Compound No. 1 in the Table, Ac-Nle-Ala-His-DPhe-Arg-Trp-NH2]",80 % of α-MSH
3,"Ac-[NMeNle]AH[d(hPhe)]RW-NH2 [Compound No. 13 in the Table, Ac-MeNle-Ala-His-DHomoPhe-Arg-Trp-NH2]",55 % of α-MSH
4,"Ac-[Nle]AH[d2Thi]RW-NH2 [Compound No. 3 in the Table, Ac-Nle-Ala-His-DThi-Arg-Trp-NH2]",10 % of α-MSH
5,"Benzenesulfonyl-[Nle]AH[dF]RW-NH2 [Compound No. 4 in the Table, BzlSO2-Nle-Ala-His-DPhe-Arg-Trp-NH2]",70 % of α-MSH
6,"Ac-[Nle]AH[dF]KW-NH2 (SMILES CCCC[C@H](NC(C)=O)C(=O)N[C@@H](C)C(=O)N[C@@H](Cc1c[nH]cn1)C(=O)N[C@H](Cc1ccccc1)C(=O)N[C@@H](CCCCN)C(=O)N[C@@H](Cc1c[nH]c2ccccc12)C(N)=O) [Compound No. 2 in the Table, Ac-Nle-Ala-His-DPhe-Lys-Trp-NH2]",40 % of α-MSH

# Next, values leading:
row,cAMP production (as % of α-MSH),Binder
1,45 % of α-MSH,"Ac-[Nle]AH[d(hPhe)]RW-NH2 [Compound No. 14 in the Table, Ac-Nle-Ala-His-DHomoPhe-Arg-Trp-NH2]"
2,55 % of α-MSH,"Benzenesulfonyl-[Nle]AH[dF]KW-NH2 (SMILES CCCC[C@H](NS(=O)(=O)c1ccccc1)C(=O)N[C@@H](C)C(=O)N[C@@H](Cc1c[nH]cn1)C(=O)N[C@H](Cc1ccccc1)C(=O)N[C@@H](CCCCN)C(=O)N[C@@H](Cc1c[nH]c2ccccc12)C(N)=O) [Compound No. 6 in the Table, BzlSO2-Nle-Ala-His-DPhe-Lys-Trp-NH2]"
3,100 % of α-MSH,"Tos-[Nle]AH[dF]RW-NH2 [Compound No. 5 in the Table, Tos-Nle-Ala-His-DPhe-Arg-Trp-NH2]"
